Experiment [1] has as its target T1, B7-H3 (4Ig-B7-H3) endogenously expressed on MDA-MB-231 cells (UniProt Q5ZPR3 29-534, limits assumed).
T1 construct: whole, on cells; also called 细胞表面的B7-H3抗原
T1 sequence (looked up): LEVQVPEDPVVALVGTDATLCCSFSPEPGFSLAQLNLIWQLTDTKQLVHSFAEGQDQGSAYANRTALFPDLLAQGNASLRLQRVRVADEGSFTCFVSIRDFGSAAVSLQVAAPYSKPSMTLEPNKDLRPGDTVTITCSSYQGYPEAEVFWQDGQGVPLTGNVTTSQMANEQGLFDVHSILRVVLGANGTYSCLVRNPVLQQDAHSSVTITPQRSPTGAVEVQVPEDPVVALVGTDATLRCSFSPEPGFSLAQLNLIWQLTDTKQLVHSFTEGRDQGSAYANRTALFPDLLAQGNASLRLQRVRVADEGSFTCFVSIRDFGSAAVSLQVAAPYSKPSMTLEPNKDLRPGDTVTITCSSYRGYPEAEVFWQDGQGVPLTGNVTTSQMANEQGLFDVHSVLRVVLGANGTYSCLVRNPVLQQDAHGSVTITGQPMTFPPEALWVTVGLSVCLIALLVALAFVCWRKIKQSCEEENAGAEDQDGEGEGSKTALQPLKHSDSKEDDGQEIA
Put plainly: FACS, MDA-MB-231 cells. (A flow cytometer gives signals particle by particle.)

Experiment [2] deals with T2, 人B7-H3变体1(4Ig-B7-H3) on stable cells 293-h4Ig-B7-H3-copGFP (human, UniProt Q5ZPR3 29-534).
T2 construct: Full-length CDS cloned in pCDH-EF1-T2A-copGFP and expressed on stably transduced cells; residues left by T2A cleavage not described
T2 sequence: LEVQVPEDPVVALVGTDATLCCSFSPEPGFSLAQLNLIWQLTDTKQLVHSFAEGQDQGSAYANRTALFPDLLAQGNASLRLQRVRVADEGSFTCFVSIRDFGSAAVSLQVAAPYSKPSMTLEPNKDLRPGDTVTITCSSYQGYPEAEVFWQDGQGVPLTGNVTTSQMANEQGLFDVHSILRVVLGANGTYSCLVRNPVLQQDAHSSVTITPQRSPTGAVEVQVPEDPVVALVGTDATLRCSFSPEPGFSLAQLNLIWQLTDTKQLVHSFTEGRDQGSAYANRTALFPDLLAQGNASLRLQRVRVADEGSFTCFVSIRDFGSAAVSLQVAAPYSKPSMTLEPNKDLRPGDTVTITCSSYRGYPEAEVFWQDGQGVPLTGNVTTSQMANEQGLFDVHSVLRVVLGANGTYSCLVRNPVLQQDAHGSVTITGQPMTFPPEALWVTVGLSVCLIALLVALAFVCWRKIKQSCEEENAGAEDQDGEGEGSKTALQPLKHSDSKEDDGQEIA
As to the kind of experiment: FACS, 293-h4Ig-B7-H3-copGFP stable cells.

B1: h27B4-H2-L2 (antibody, human IgG1, kappa, V domains shown)
VH: QVQLVQSGAEVKKPGSSVKVSCKASGYTFTTYWISWVRQAPGQGLEWMGGIYPGDGGSNYAQKFQGRVTITADESTSTAYMELSSLRSEDTAVYYCARGGNYISFPMYYWGQGTLVTVSS
VL: VIWMTQSPSLLSASTGDRVTISCKASRGVSTALAWYQQKPGKAPELLIYWASTLQSGVPSRFSGSGSGTDFTLTISCLQSEDFATYYCQQHYDTPYTFGQGTKLEIKR
notes: Whole IgG, humanized; optimized hIgG1 (L235V, F243L, R292P, Y300L, P396L) and human kappa; also called zw.M0883B9.27B4Z01
With B1, the binding result in experiment [1] and in experiment [2] was “binds” throughout.

B2: scFv-27B4-H5-L5 (scFv)
scFv: QVQLVESGGGVVQPGRSLRLSCKASGYTFTTYWMHWVRQAPGKGLEWVAVIYPGDGGSYYTDSVKGRFTISRDNSKNTLYLQMNSLRAEDTAVYYCARGGNYISFPMYYWGQGTLVTVSSGGGGSGGGGSGGGGSGGGGASDIVMTQTPLSLSVTPGQPASISCKASRGVSTALYWYLQKPGQPPQLLIYWASNRFSGVPDRFSGSGSGTDFTLKISRVEAEDVGVYYCQQHYDTPYTFGQGTKLEIK
notes: VH-linker-VL in phage display vector pXY, expressed in TG1, purified on a nickel column
Turning to B2, the binding result in experiment [1] and in experiment [2] was “binds” each time.

B3: scFv-27B4-H5-L1 (scFv)
scFv: QVQLVESGGGVVQPGRSLRLSCKASGYTFTTYWMHWVRQAPGKGLEWVAVIYPGDGGSYYTDSVKGRFTISRDNSKNTLYLQMNSLRAEDTAVYYCARGGNYISFPMYYWGQGTLVTVSSGGGGSGGGGSGGGGSGGGGASDIQMTQSPSSLSASMGDRVTITCKASRGVSTALNWYQQKPGKAPKLLIYWASSLQSGVPSRFSGSGSGTDFTLTISSLQPEDFATYYCQQHYDTPYTFGQGTKLEIK
notes: as for B2
Turning to B3, the binding result in experiment [1] and in experiment [2] was “binds” in each case.

B4: scFv-27B4-H5-L2 (scFv)
scFv: QVQLVESGGGVVQPGRSLRLSCKASGYTFTTYWMHWVRQAPGKGLEWVAVIYPGDGGSYYTDSVKGRFTISRDNSKNTLYLQMNSLRAEDTAVYYCARGGNYISFPMYYWGQGTLVTVSSGGGGSGGGGSGGGGSGGGGASVIWMTQSPSLLSASTGDRVTISCKASRGVSTALAWYQQKPGKAPELLIYWASTLQSGVPSRFSGSGSGTDFTLTISCLQSEDFATYYCQQHYDTPYTFGQGTKLEIK
notes: as for B2
B4: the binding result in experiment [1] and in experiment [2] was “binds” throughout.

B5: scFv-27B4-H5-L4 (scFv)
scFv: QVQLVESGGGVVQPGRSLRLSCKASGYTFTTYWMHWVRQAPGKGLEWVAVIYPGDGGSYYTDSVKGRFTISRDNSKNTLYLQMNSLRAEDTAVYYCARGGNYISFPMYYWGQGTLVTVSSGGGGSGGGGSGGGGSGGGGASEIVLTQSPDFQSVTPKEKVTITCKASRGVSTALHWYQQKPDQSPKLLIKWASQSFSGVPSRFSGSGSGTDFTLTINSLEAEDAATYYCQQHYDTPYTFGQGTKLEIK
notes: as for B2
In the case of B5, the binding result in experiment [1] and in experiment [2] was “binds” each time.

B6: h27B4-H4-L3 (antibody, human IgG1, kappa, V domains shown)
VH: EVQLVQSGAEVKKPGESLKISCKASGYTFTTYWIGWVRQMPGKGLEWMGIIYPGDGGSRYSPSFQGQVTISADKSISTAYLQWSSLKASDTAMYYCARGGNYISFPMYYWGQGTLVTVSS
VL: EIVMTQSPATLSVSPGERATLSCKASRGVSTALAWYQQKPGQAPRLLIYWASTRATGIPARFSGSGSGTEFTLTISSLQSEDFAVYYCQQHYDTPYTFGQGTKLEIKR
notes: Whole IgG, humanized; optimized hIgG1 (L235V, F243L, R292P, Y300L, P396L) and human kappa; also called zw.M0883B9.27B4Z02; 27B4Z02分子
On to B6, for which the binding result in experiment [1] and in experiment [2] was “binds” throughout.

B7: scFv-27B4-H5-L3 (scFv)
scFv: QVQLVESGGGVVQPGRSLRLSCKASGYTFTTYWMHWVRQAPGKGLEWVAVIYPGDGGSYYTDSVKGRFTISRDNSKNTLYLQMNSLRAEDTAVYYCARGGNYISFPMYYWGQGTLVTVSSGGGGSGGGGSGGGGSGGGGASEIVMTQSPATLSVSPGERATLSCKASRGVSTALAWYQQKPGQAPRLLIYWASTRATGIPARFSGSGSGTEFTLTISSLQSEDFAVYYCQQHYDTPYTFGQGTKLEIK
notes: as for B2
Take B7: the binding result in experiment [1] and in experiment [2] was “binds” throughout.

The values are drawn from patent publication CN113683697A (SHANGHAI XIANGYAO BIOTECHNOLOGY CO LTD, dated 2021).
